From the DeepSol protein solubility set

Test: soluble on expression in E. coli; label from the status in PepcDB or PDB records

Sequence	soluble on expression in E. coli
MGKTIAEKIFASHLVDEPFAGTKVLRLDVVMCHEITTPIAIADLMARGKDRVFDPTKIKAVIDHVTPSKDSKTATQAKMLRDWARRHGIVDFFDVGANGVCHALFPEKGFIRPGYTVIMGDSHTCTHGAFGAFAAGIGTTDLEVGILKGVCAFREPKT	not soluble
MPVTLSFGNHQNYTLNESRLAHLLSADKEKAIHMGGWDKVQDHFRAEKKDHALEVLHSIIHGQGRGEPGEMEVNVEDINKIYAFKRLQHLACPAHQDLFTIKMDASQTQFLLMVGDTVISQSNIKDILNISDDAVIESMSREERQLFLQICEVIGSKMTWHPELLQESISTLRKEVTGNAQIKTAVYEMMRPAEAPDHPLVEWQDSLTADEKSMLACINAGNFEPTTQFCKIGYQEVQGEVAFSMMHPCISYLLHSYSPFSEFKPTNSGFLKKLNQDYNDYHAKKMFIDVILEKLYLTHERSLHIGKDGCSRNILLT	not soluble
MHHHHHHSSGRENLYFQGSTKGDINQYYTLENTIGRGSWGEVKIAVQKGTRIRRAAKKIPKYFVEDVDRFKQEIEIMKSLDHPNIIRLYETFEDNTDIYLVMELCTGGELFERVVHKRVFRESDAARIMKDVLSAVAYCHKLNVAHRDLKPENFLFLTDSPDSPLKLIDFGLAARFKPGKMMRTKVGTPYYVSPQVLEGLYGPECDEWSAGVMMYVLLCGYPPFSAPTDSEVMLKIREGTFTFPEKDWLNVSPQAESLIRRLLTKSPKQRITSLQALEHEWFEKQLSSSPRNLL	soluble
MGSDKIHHHHHHMPLYRHLDLQSRYVTSRPVDVWLPAATGDQPLPVIYMHDGQNLFDPTLRADGEVWAVDQAIERLCATYNWPGAIVVGVWCTDQRWREYAPQKPFAALRQTRGWESIVERMGGEPVSDAYLSFLVEEVRPFVDRHYPTLPDASNTFLMGSSMGGLISLYGVCQYPDLFAGAGCLSTHWPAGGNLLVDELAALLPPAGRHRFYFDYGTVGLDAEYEPFQQRMDRLLEQAGYRHGHDWLTRKFPGAAHNEAAWRARVADVIAFLVLGRVAGE	not soluble
GSLNITENESISTAVIDAINSGATLKDINAIPDDMMDDIYSYAYDFYNKGRIEEAEVFFRFLCIYDFYNVDYIMGLAAIYQIKEQFQQAADLYAVAFALGKNDYTPVFHTGQCQLRLKAPLKAKECFELVIQHSNDEKLKIKAQSYLDAIQ	soluble
MSGTRKKALLKVIILGDSGVGKTSLMNQYVNRRFSNQYKATIGADFLTRDVNIDDRTVTLQIWDTAGQERFQSLGVAFYRGADCCVLAFDVTNAASFKSLDSWRDEFLIQASPRDPDHFPFVLLGNKVDLESQRAVSSKRAQSWCQTKGNIPYYEVSAKEALNVEAAFLAIARDALARESQETNDFPEFPDQIRLNPNQQNQQNSGCNC	not soluble
MPRRHSIVYAVEYDGDIYAITGITHETRNYLYKYIVKEDKWIELYMYFNHVGKTFVCSCGDYILIIADAKYEYYPKSNTWNLFDMSTRNIEYYDMFTKDETPKCN	not soluble
MAHHHHHHMKQSKLVSRPSKTKKPKERKDRREDERYQREMDALIAREVARENVSMRSDTHKPQPKLLEEVQKDTSRRPKTPTSLSTAAVEKQAKIDKESGFQPVVNQRKERQQQQHQQQQTSAPKPMLVNEALERKLNHFFSNLNRKEKLTRLSQPEENPTASKGATIIVRKDIANARSWQQQQQ	soluble
SNAMNNTQKKLKVLFIGESWHIHMIHSKGYDSFTSSKYEEGATWLLECLRKGGVDIDYMPAHTVQIAFPESIDELNRYDVIVISDIGSNTFLLQNETFYQLKIKPNALESIKEYVKNGGGLLMIGGYLSFMGIEAKANYKNTVLAEVLPVIMLDGDDRVEKPEGICAEAVSPEHPVVNGFSDYPVFLGYNQAVARDDADVVLTINNDPLLVFGEYQQGKTACFMSDCSPHWGTQQFMSWPFYTDLWVNTLQFIARK	soluble
MNKNSTSNKKNSKNKKKVDKLDLILNEFKNDIKNEKGENNQNDNKLLNGAIETNNNNNNNNNNSGNNRIHFDKEEIKEIKKKIILKEHVLEEQDNSSIRLLKNWPQLEKTYQTNPPCIPIDMIYGKDGKYPVGEILEYNNYNLSGQSLVEKKEREKLSIDYYEDLRKAAECHRQVRKHMQAFIKPGKKMIDIAQETERKTKELILAEKLKCGWGFPTGCSLNHCAAHYTPNYGDETVLKYDDVCKLDFGVHVNGYIIDCAFTIAFNEKYDNLIKATQDGTNTGIKEAGIDARMCDIGEAIQEAIESYEIELNQKIYPIKAISNLRGHSINKYIIHGGKCVPIVRQKEKNEIMEEGELFAIETFASTGKGYVNHENECSHYMRNPEKQFVPIRLNSAKTLLKVINDNFDTLPFCNRWLDDLGQTRHFMALKTLIDLNIVEPYPPLCDIKNSFTSQMEHTILLRPTCKEVLSRG	not soluble
MGSDKIHHHHHHMKPPIQLPLGVRLRDDATFINYYPGANAAALGYVERLCEADAGWTESLIYLWGKQGVGRSHLLQAATHRFQQRGEPAVYLPLAQLLDRGVELLDYLAQYELVCIDDLHVIAGKADWEEAMFHLFNRLRDSGRRLLLAASASPRELPIKLPDLKSRLTLALVFQMRGLSDEDKLRALQLRASRRGLHLTDEVGHFILTRGARSMSALFDLLERLDQASLQAQRKLTIPFLKETLGW	not soluble
SLVDLAADILVADAHMHTNPTRGLGAREVARRFRREGGWFAALLTLTTWSYGLAPTGVEAYRRMYEIHLRECRAAREEGLRVACFAGIHPAEVDRMIDKHRQPPEKALETALEAVEVLRRLCREGAIDGVGEVGRQHYRTSPLRVAIAEVVLEEAAAAALEEGCLLQLHLENEGPATVETVDRILRRAGATGARRGMVIFHHATLRVAKEAVARGYNATIPGVPKLLEHAAANEPPDYMVESDYLDDPARPGAVVEPWKMAQKLREIASRTPETREWVRRTNIDLVERVFQASPP	not soluble
MHFSRIVSGLACSIILNISVSNANAAQVENYTQYLPDGANLALMVQKIGASTPAIDYHAQQMALPASTQKVLTALAALLQLGPDFRFNTTLESHGTITDGVLRGNLIARFGGDPTLTRQQLRNMVATLRKAGVKQIAGDVVIDTSVFASHDKAPGWPWNDMTQCFSAPPAAAIVDRNCFSVSLYSAPNPGDTAFIRVASYYPVQMFSEVRTLAKGSPDAQYCELDVVPGELNRFTLTGCLTQRSEPLPLAFAVQNGASYAGAILKDELKKADIQIDGNLRRQTIPSPAGNVLAQTQSAPLHDLLKIMLKKSDNMIADTVFRTIGHQRFGVPGTWRSGADAVRQILRQKAGVDLGNSIVVDGSGLSRHNLISPATMMQVLQYIAQNDQELNFISMLPLAGYDGTLRYRGGLHEAGVNGKVSAKTGALQGVYNLAGFITTASGQRMAFVQFLSGYAVPPEDQKNRRAPLVRFESRLYKDIYQNN	not soluble
GSHMPAPHGGILQDLIARDALKKNELLSEAQSSDILVWNLTPRQLCDIELILNGGFSPLTGFLNENDYSSVVTDSRLADGTLWTIPITLDVDEAFANQIKPDTRIALFQDDEIPIAILTVQDVYKPNKTIEAEKVFRGDPEHPAISYLFNVAGDYYVGGSLEAIQLPQHYDYPGLRKTPAQLRLEFQSRQWDRVVAFQTRNPMHRAHRELTVRAAREANAKVLIHPVVGLTKPGDIDHHTRVRVYQEIIKRYPNGIAFLSLLPLAMRMSGDREAVWHAIIRKNYGASHFIVGRDHAGPGKNSKGVDFYGPYDAQELVESYKHELDIEVVPFRMVTYLPDEDRYAPIDQIDTTKTRTLNISGTELRRRLRVGGEIPEWFSYPEVVKILRESNPPRPKQGFSIVLGNSLTVSREQLSIALLSTFLQFGGGRYYKIFEHNNKTELLSLIQDFIGSGSGLIIPNQWEDDKDSVVGKQNVYLLDTSSSADIQLESADEPISHIVQKVVLFLEDNGFFVF	soluble
MKYTKGTYSSSAKGHSSNVNLTVNFDSDKIKNVSINVEGETSQRNKDVVSQLSAQILKKQDDSLDAVTGATETSNAVRRALTDCIKQATGDTENQTKTPLKDGTYTETVPSYSLIAPMTGEVTIKNNKIKNIKITSEKDSQTSPWFHVAEKKFIPRLIESQSLDTDAVTGASVSSGAIKSIAEKAIKDAGGNNDEWHTPVTKKNDTVEKKDFDVIVVGLGGSGILSYCAAAKSGAKVFGLDIAAGIGGNSISTSGPMVVNSKIQSKKYNDGKDNIDPEDLYNTWIDYVKTDKKAAVIKKAIYEDGPALDYYMKNFGFSFDSPAFGMPAGYFPSFVRQDWTKEWAVYTAKDNKWYSAGQPVHIDQYQNALDKAKGMNPVNDYQLELAAKDFIKDDSGKVIGVKAVSYDGTTYNIYGRAVILASGGFVGNNQMMKDVYGHTCHTFGSTTAKGQGIKMGQSIGGNTYALRTLPMIHISQVPNIIRDDSLTPDQKATLSALAITSDAKQIDETGNILGSKDESGIEESKLTVGIAYAPGFHYFNAYTKEDLDKMKNEGVSETTSKVVVIILDQGGKVPAAHTPIKDIDKIVDEAIKHGDAWKGTPSELAKQLNMDEAKLTKSLGDPNKEYYLFEAAGYAYATCGGLDVDEDMNVLRQDGSKIENVFAVGQDSEGVENRNDEAYTPWGGQAQAWTFVSGKIAGENAAKILEHHHHHH	soluble
MSFRIYNTQKWSAEQMAPYLDKVIKSIAYFHKKFPDDYTPQTILNDILKGDKLLWIIVDEQENFMAHVTTELQKLVTGALRAVIVTLGGKGGAPLTKLIPQIEAYYKEKGAKELIIIGRRGWKKSLKSHGYFVNLLEYRKQL	not soluble
MELLRPEATVLSLGRRVLSFDREGRPYHYFREGKTYKRALDGSLHLRYREGERRRRRLAPEEALGVYQEVLDLAEAHLRDERRREEVLRWTPEGLLDPTPYRRAYAWPVSILPPDAYLSVVLQATTGCTWNRCAFCSFYQDRPFQKRTPEAFREHIQAVLALLGRGRLLRRGVFLADGNALALSEPLLPLLELVRAHFPGEPVMGFLDLFTGLKKAPSWWERLGGMGLRRVYIGLETGHAPLLALLRKPGHPKEVLPLVRALKSSGLSVGVILMVGSGGKAFAEAHFRESLALLAELPLGRGDVVYLSPFREDPGTPYAALGLAPLEDLEGELQRWAQAVRRLGLRASRYEIRE	soluble
MCINIRLEKTRDIQSIHAITIAAFLDAPHTDHTEQFIVDALRDSGALSVSLIAEDSSKIIGHVALSPVTISDGSKDWYGLGPISVVPTDQNKGIGSKLMHAALRELNNLNANGCVLLGDPNYYRRFGFEPIGGLVLPDVPPEYFQATLLKGSYPTGVVTYHESFSAQS	not soluble
MGSDKIHHHHHHMRNKIEKGVDLNLRQFIKSLGYIAGGTALLASTPWLSSCTPEKLKEIRNEKARIALIGTGSRGQYHIHNLKEIPHARIVAVCDNYAPNLQQAVELCPGAKAYTDYRKLLESADIDGVIISTPLNWHAPIVLDALAAGKHVFCEKAMARTLDECKAIYDAYQTTNQVLYFCMQRMYDEKYIKGMQMIHSGLIGDVVGMRCHWFRNADWRRPVPSPELEHQINWRLYKESSGGLMTELACHQLEVCNWAAKRMPVSIIGMGDIVYWKDGREVYDSVNVTYRYSDGTKIAYESLISNKFNGMEDQILGHKGTMEMAKGIYYLEEDHSTSGIRQLIGQVKDKVFAAIPTAGPSWRPETKMEYTPHFVIEGDINVNNGLSMIGADKDGSDIILSSFCQSCITGEKAQNVVEEAYCSTVLCLLGNQAMEEERHILFPDEYKIPYMKF	not soluble
DITERHAREQKLREERAVIQQALDALDEPLFVTDIDGRLKHCNHRALELTGNTEETAVGTPITALFPDEERETIADAVDDALRTGRTTITASLCLDSGQQQRYEFRAHSLTDLDNNTAGLVILGQDVS	not soluble
MGSDKIHHHHHHMINETRTTLDQSEVDHFSRIAAEWWNPHGKFRPLHQFNPTRLAYIREKICLELHRDPVSLKPFENLKILDIGCGGGLLCEPMARLGAMVVGADASQTNIEVAKIHAAQNGLSIDYRTTTAEALATEGEQFDIILNMEVVEHVADVNLFIEATAKMLKPQGLMFISTLNRTWKAWGLAIIGAEYILRWLPKGTHNYKKFLKPRELKNLLLQNALTVVDEIGVTYNPLNDSWNRSKDMNVNYLLLAKKS	not soluble
